Source: patent US7825091B2, “Modification of feeding behaviour” (Imperial Innovations Limited, priority 2003, dated 2010)
No end group written: not given here.

How the values were obtained:
[1] = iPVN injection, food intake in 24-h fasted rats (studies 1b, 2b); assay type: in vivo, rat
Experimental: (§1) Animals were handled daily after recovery from surgery until completion of the studies.
(§2) Animals had permanent stainless steel guide cannulas (Plastics One, Roanoke, Va.) stereotactically implanted ICV (intracerebraventricularly) or iPVN (into the hypothalamic paraventricular nucleus).
Therefore, exendin-4 was injected iPVN at a dose of 0.03 nmol.

[2] = ICV injection, food intake in 24-h fasted rats (studies 1a, 2a); assay type: in vivo, rat; settings: ICV 3 nmol, vs saline
Description: as §1, §2

GLP-1 receptor = target: T1, GLP-1 receptor (Rattus norvegicus, UniProt P32301); test: Coadministration of exendin-(9-39) with GLP-1 or OXM, ICV and iPVN, food intake (study 4); assay type: in vivo
T1 construct: from tissue; host or cells: rat hypothalamus (membrane preparation)
T1 sequence (P32301 22-463): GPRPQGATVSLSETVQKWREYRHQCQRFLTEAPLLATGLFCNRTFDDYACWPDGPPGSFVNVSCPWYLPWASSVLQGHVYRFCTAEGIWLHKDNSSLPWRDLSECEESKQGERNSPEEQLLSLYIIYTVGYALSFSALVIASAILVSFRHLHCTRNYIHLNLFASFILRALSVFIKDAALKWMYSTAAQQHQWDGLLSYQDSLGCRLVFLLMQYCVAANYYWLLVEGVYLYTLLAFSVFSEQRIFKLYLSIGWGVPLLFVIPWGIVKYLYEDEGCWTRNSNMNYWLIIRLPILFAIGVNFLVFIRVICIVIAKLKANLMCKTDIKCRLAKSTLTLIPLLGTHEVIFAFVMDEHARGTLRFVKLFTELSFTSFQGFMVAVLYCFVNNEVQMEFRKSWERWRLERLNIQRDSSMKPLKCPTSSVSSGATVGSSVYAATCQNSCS

[3] = target: T2, Arcuate nucleus GLP-1 receptors (Rattus norvegicus, UniProt P32301); test: iARC exendin 9-39 prior to IP OXM or GLP-1, 1 hour food intake; assay type: in vivo
T2 construct: 24-hour fasted rats received an iARC injection of saline or exendin9-39 (5 nmoles); from tissue; host or cells: live rat, hypothalamic arcuate nucleus
T2 sequence (P32301 22-463): T1 sequence (P32301 22-463)
Description: Rats cannulated into the arcuate nucleus were randomised into 6 groups (n=10-12 per group). […] The injection details are described in Table 1 below.

[4] = tested on: fos-like immunoreactivity; test: Fos-like immunoreactivity (FLI) immunohistochemistry in hypothalamus and brainstem after IP injection; assay type: in vivo, rat; settings: IP 15 nmol/kg, 90 minutes
Description: The brains were removed and post-fixed overnight in PBF and then transferred to PB-sucrose (20% w/v) overnight. 40 μm coronal sections of brain and brainstem were cut on a freezing microtome and stained for fos-like immunoreactivity (FLI) by the avitin-biotin-peroxidase method. The sections were then mounted on poly-L-lysine-coated slides, dehydrated in increasing concentrations of ethanol (50-100%), delipidated in xylene and coverslipped using DPX mountant. Slides were examined for FLI-positive nuclei using a light microscope (Nikon Eclipse E-800) and images captured using a microimager (Xillix MicroImager). The numbers of FLI-positive nuclei in the hypothalamus and brainstem were counted by an independent member of the research team who was blinded to the experimental groups. The average number of FLI-positive nuclei per section was calculated and expressed as an integer for each animal.

exendin-4
food intake (refeeding) after iPVN injection ([1]; iPVN 0.03 nmol): inhibited reseeding

glucagon
food intake (refeeding) after ICV injection [2]: failed to affect food intake at any time point
food intake after iPVN injection ([1]; iPVN 1 nmol, any time point): failed to affect food intake at any time point

exendin-(9-39)
effect of coadministration on anorectic effects of GLP-1 (GLP-1 receptor; ICV, exendin-(9-39) 30 nmol with GLP-1 3 nmol, ratio 10:1): blocked the anorectic effects of GLP-1
effect of coadministration on anorectic effect of OXM (GLP-1 receptor; ICV, exendin-(9-39) 30 nmol with OXM 3 nmol): attenuation of the anorectic effect of OXM
effect of coinjection on anorectic effects of GLP-1 (GLP-1 receptor; iPVN, exendin-(9-39) 10 nmol with GLP-1 1 nmol): blocked
effect of coinjection on anorectic effects of OXM (GLP-1 receptor; iPVN, exendin-(9-39) 10 nmol with OXM 1 nmol): blocked
effect on anorexia caused by IP administration of OXM ([3]; exendin 9-39 into the ARC, dose printed 300 nmol/kg, IP OXM 30 nmol/kg): blocked
Food intake (g), 1 hour ([3]; iARC exendin 9-39 (5 nmoles) or saline 15 minutes prior to IP OXM (30 nmol/kg), GLP-1 (30 nmol/kg) or saline): 9.0 g
effect on inhibition of food intake by IP GLP-1 ([3]; prior iARC exendin 9-39, IP GLP-1 30 nmol/kg): not affected

CCK: positive control for gastric emptying at the two-hour time-point (DYMGWMDF; ends and bridges not checked; UniProt P06307 96-103, looked up)
FLI staining in the brainstem (NTS, area postrema) [4]: caused dense staining of FLI
